Reference: paper PMC3664427 (Circulation research, 2011)

Legend:
p53 DNA binding domain = p53 DNA binding domain (UniProt P04637 94-312); assay: SPR
[1] = target: fluorescein-labelled p53DBD (UniProt P04637 94-312, fluorescein label (site not stated)); assay: fluorescence polarisation
fluorescein-labelled p53DBD, sequence (P04637 94-312): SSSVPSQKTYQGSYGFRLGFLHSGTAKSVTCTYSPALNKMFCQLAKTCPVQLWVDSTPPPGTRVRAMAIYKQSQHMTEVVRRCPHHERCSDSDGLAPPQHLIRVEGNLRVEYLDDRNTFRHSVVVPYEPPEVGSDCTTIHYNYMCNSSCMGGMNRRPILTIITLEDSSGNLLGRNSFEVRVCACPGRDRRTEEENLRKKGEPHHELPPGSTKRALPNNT

p53 DNA binding domain, sequence (P04637 94-312): as above

B1: telethonin (natural protein, human, UniProt O15273 1-167, looked up)
chain: MATSELSCEVSEENCERREAFWAEWKDLTLSTRPEEGCSLHEEDTQRHETYHQQGQCQVLVQRSPWLMMRMGILGRGLQEYQLPYQRVLPLPIFTPAKMGATKEEREDTPIQLQELLALETALGGQCVDRQEVAEITKQLPPVVPVSKPGALRRSLSRSMSQEAQRG
**Q.** What does the source list for B1?
**A.** Kd (p53 DNA binding domain): 0.765 ± 0.03 µM; Kd [1]: 2.2 µM
